Reference: US20250243290A1
Values joined by “and” are separate entries in the source; they are usually repeats but may differ in a detail not shown here. Identical values can stand only once.

Columns and labels:
VPE2LSCGSR2…2 = assay: peptide-array ELISA
VPE2LS2…2TREQNRIC = assay: peptide-array ELISA
…2RP = assay: peptide-array ELISA
LWNWVPE2…2T = assay: peptide-array ELISA
S2…2RP = assay: peptide-array ELISA
CLSKQEG2RL2…22SK2C = assay: peptide-array ELISA [Con't]
[1] = molecular target: CGWY2ALSKQEG2RL2CNASMDAV2TSTSPTRC; assay: peptide-array ELISA [Con't]
[2] = molecular target: SCGSR2…; assay: peptide-array ELISA [Con't]
…2RLCQA2TREQNRI2T2RPC = assay: peptide-array ELISA [Con't]
[3] = molecular target: …2…; assay: peptide-array ELISA [Con't]
…2…2TSTSPTRC = assay: peptide-array ELISA [Con't]
E2LSCGSR2…2T2 = assay: peptide-array ELISA [Con't]
ALSKQEG2…2APGTFSN = assay: peptide-array ELISA [Con't]
[4] = molecular target: CGSR2…; assay: peptide-array ELISA [Con't]
CDQVETQA2…2TREQNRI2T2RPC = assay: peptide-array ELISA [Con't]
…2SK2SPGQ = assay: peptide-array ELISA [Con't]
[5] = molecular target: EGCRL2…2…; assay: peptide-array ELISA [Con't]
…2TSTSPTRC = assay: peptide-array ELISA [Con't]
[6] = molecular target: …2KP2…2…; assay: peptide-array ELISA [Con't]
[7] = molecular target: …2KCAPLRK2…; assay: peptide-array ELISA [Con't]
QNRI2…2RL = assay: peptide-array ELISA [Con't]

Sequence of SCGSR2… (peptide, as listed by the source): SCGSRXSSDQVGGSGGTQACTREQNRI
Sequence of …2TSTSPTRC (peptide, as listed by the source): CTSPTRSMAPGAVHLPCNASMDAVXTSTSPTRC
Sequence of CGSR2… (peptide, as listed by the source): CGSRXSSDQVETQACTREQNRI
Sequence of …2… (peptide, as listed by the source): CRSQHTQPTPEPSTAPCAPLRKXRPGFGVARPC

Question: Which Raw luminescence data (VPE2LSCGSR2…2) does the source give for agonistic TNFR2 antibody MR2-1 here?
Answer: 365

Question: And the Raw luminescence data (VPE2LS2…2TREQNRIC)?
Answer: 399

Question: And the Raw luminescence data (…2RP)?
Answer: 435 and 433

Question: And the Raw luminescence data (LWNWVPE2…2T)?
Answer: 467

Question: And the Raw luminescence data (S2…2RP)?
Answer: 392

Question: What about the Raw luminescence data (CLSKQEG2RL2…22SK2C) of the same substance?
Answer: 156

Question: And the Raw luminescence data [1]?
Answer: 156

Question: And the Raw luminescence data [2]?
Answer: 155

Question: What about the Raw luminescence data (…2RLCQA2TREQNRI2T2RPC) of the same substance?
Answer: 150

Question: And the Raw luminescence data [3]?
Answer: 155

Question: What about the Raw luminescence data (…2…2TSTSPTRC) of the same substance?
Answer: 156

Question: And the Raw luminescence data (E2LSCGSR2…2T2)?
Answer: 153

Question: And the Raw luminescence data (ALSKQEG2…2APGTFSN)?
Answer: 151

Question: What about the Raw luminescence data [4] of the same substance?
Answer: 153

Question: What about the Raw luminescence data (CDQVETQA2…2TREQNRI2T2RPC) of the same substance?
Answer: 154

Question: What about the Raw luminescence data (…2SK2SPGQ) of the same substance?
Answer: 156 and 153

Question: What about the Raw luminescence data [5] of the same substance?
Answer: 155

Question: What about the Raw luminescence data (…2TSTSPTRC) of the same substance?
Answer: 154

Question: What about the Raw luminescence data [6] of the same substance?
Answer: 150

Question: And the Raw luminescence data [7]?
Answer: 151

Question: What about the Raw luminescence data (QNRI2…2RL) of the same substance?
Answer: 151
